# In the DeepSol protein solubility set:
# Experiment: soluble on expression in E. coli; label from the status in PepcDB or PDB records
row,Sequence,soluble on expression in E. coli
1,MANRGGEYLYDELWKLCAGPLVDVPQAQERVYYFPQGHMEQLEASTQQVDLNTMKPLFVLPPKILCNVMNVSLQAEKDTDEVYAQITLIPVGTEVDEPMSPDPSPPELQRPKVHSFSKVLTASDTSTHGGFSVLRKHATECLPPLDMTQQTPTQELVAEDVHGYQWKFKHIFRGQPRRHLLTTGWSTFVTSKRLVAGDTFVFLRGENGELRVGVRRANLQQSSMPSSVISSHSMHLGVLATARHATQTKTMFIVYYKPRTSQFIISLNKYLEAMSNKFSVGMRFKMRFEGEDSPERRYSGTVIGVKDCSPHWKDSKWRCLEVHWDEPASISRPNKVSPWEIEPFVNSENVPKSVMLKNKRPRQVSEVSALDVGITASNLWSSVLTQPHEFAQSCITSQWSSPQQCHRDANEDAKKSDWLNNSYSVSNVAKDSTLNDQMVSPVEQKKPETTANYRLFGIDLMSSSLAVPEEKTAPMRPINISKPTMDSHSDPKSEISKVSEEKKQEPAEGSPKEVQSKQSSSTRSRTKVQMQGVPVGRAVDLNALKGYNELIDDIEKLFDIKGELRSRNQWEIVFTDDEGDMMLVGDDPWPEFCNMVKRIFIWSKEEVKKMTPGNQLRMLLREVETTLTTTSKTDNHSN,soluble
2,DMPVEKIQEAEMAVEPKDGNMVEQPNDPVTNICQAADKQLVTLVEWAKRIPHFSDLPIDDQVILLRAGWNELLIAAFSHRSIDVKDGILLASGLHVHRSSAHQAGVGTIFDRVLTELVAKMRDMKMDKTELGCLRAIVLFNPDAKGLTDPSLVESLREKVYASLEEYCKQQYPEQPGRFAKLLLRLPALRSIGLKCLEHLFFFKLIGDTPIDTFLMEML,soluble
3,GPGSMSSEHGEILRLWEKLRTIEDRTEEQVAMPSSKKTAYAHKYPMVDKLMHLIEPKFANLVRTPSVSRVVQSMIKYGSAEQVNRLLKWVSKDFSTYATDAYAHFVVCALVRHVPHEAYSKLMTHVIPSVPQLVAHKFGIEVLHSVYSSRWCSPADRSLLLLAVFKDNVAVMRRWPGYPEVEAVLKKNPSLQRRLLSRLFDLSDKLVSQKEAIGYPFVQRLVGTYVRCGTRDEVSELCDTLRPHITAISATREGAPLASLAFSLTEPKKRKEVLHSFNAQLGELCTSKYAAPVIARLFDLLYDAQMLRKYVASDLAEHIGQVVNSPYGYQILMHLLTPHEERKRRFLLPNWQEHNLFSMENKEWNHHTWLTPAFVPETVEICSKPAVTSHLAALPMLVKAFLQYVTDEAHSAKLNRHHAALIAREVLHVVQHEPLYKAAIQLSEDEEHALSKLAPAHGKREREDAAGEVETYAAAPTKCPKRENGSQKAAALTPADKRKKTKVPTVISAAAPLEGRRVKTDAKKRVKKS,soluble
4,MGSDKIHHHHHHMRKLALPLVAFLTGGLAACSSSDVVESQGITVENCGSVVNFDSPPSHIALMKSAAVPTLDALGVLDRVVTKAGAFPAGYYDADLSERVTDIPTLSNKIDASGHVLISKEVVVAANPDIVFGETDTINRASMASSNIPVVEEPAFCGSIDGDVSFDDVWSQISTYGTIFDRSTEADAYIATLKERVSEVSSRVTDSGKTVAVLYPTIGGGVTYAYGRGSMANPLVAEAGLTNVFADQSERVFEVTAEELISRNPDYIIVLHSDGSPSDIVAEVGNLQGSSALTALSENKVLPILMNFAEPPTPLAVDGLEKIIDFVETHP,not soluble
5,MSLGQVEVIDRRQSVFGDDIQLQKRSSSYEIISNGVFLMSTENGRSEREMVTLGAQHMKNAVHSVLIGGLGVGITADEAVHLNDHVQVHVVEIEPSVVEWQYRYLYPFSNQALEHERTAIIISDIQQWLRTNERTYDLICLDTDNGPDWMVHKQNASLYGKIGLELVRERVRVGGAVSFWSASASESFLHELETLFDRVYEHAVSISHTLPPDYVYVACREGHHHHHH,not soluble
6,MSLKVGFDNQKYLKMQSEHIRERISKFDNKLYLEFGGKLFDDYHASRVLPGFEPDSKLKMLLELKDQAEIVIVISAIDIEKSKVRGDLGITYDSDVLRLIDAFQSKGLYVGSVTITQYSGQSSADLFKSKLEALGVKVYLHYIIPGYPNNISLILSEDGYGKNEFIQTTRPLVVITAPGPGSGKMATCLSQLYHEHKRGVRAGYAKFETFPIWNLSLKHPVNVAYEAATADLNDVNMIDPCHLEAYGVTAVNYNRDVEIFPVLKAIFLRIDEHCPYKSPTDMGVNMVGNCIIDDQACRDASKQEILRRYYQTLCNVINGTSDGDEVYKLELLLNQVSVSAEDRPVIKAANDLADLNKSPAVAMQLADESIITGKTSELLGASAAVLLNALKALAGIPHETHVISPLAIGPIQQLKTQYLGSSNPRLHTDEVLIALSISAKEDENARKAMEQLPHLKGCEVHTSVILSEVDRKVFHKLGVHLTSEPTYENKKLFHEGHHHHHH,soluble
7,MRNSLFTTLFFGLAALVMVLNAQYTSELEEDEKRGGARAMLHKRGGARAFSADVGDDYKRGGARAFYDEKRGGARAFLTEMKRGGARVFQGFEDEKRGGARAFMMDKRGGGRAFGDMMKRGGARAFVENSKRDEDWVIRPFEDDRLEKRGGGRSFPVKPGRLDD,not soluble
8,YNPIDNIQNATNRRNTVLANMVDDEKLSQADADSAAGVDMASRLVDTYQGTGDDYRYPSYFDAVIEEATKTYGLSEDEIVKNGY,not soluble
9,MSLDAELVDWELAVTTAKKLVRPGPQRSRAEADEIVSELRRLAVVAEGHVQDYTQLVPAGPPTPIAVVDRPEWVRSNVAGLRVATMPLIEKLSDQSRGRLAAAVGRRVTGVQVGSALAYLAGKVLGQFEVFLPPEEYEAGSAASAPSLAKPGAPTPVGRLSLVAPNIAHAEETLRVVPRDFRLWVCLHEQTHRSQFTAVPWLREHLESEIAAFIGATDLDPDVLADRLRSAVTALRSAVRDHGPDTPSVVEALQTPAQRAVLDRLQALMSLLEGHADQVMDAVGPQVVPTVADIRGKFDNRRSGGSPIDRFLRRLLGLDLKMQQYRQGGAFVRAVVAEVGVEGFNHVWQSPRTLPTRPELTDPGAWMLRVLGTREGHHHHHH,soluble
10,MQREDDPDAYDVIWASNGTLYFTPGFKYNTPPYPANQRVLATTDNIALTNYLRQEYNKLKESEGTPTLNDIINGFGFCYNDSSNGAGLDGTYLTVSGMLDNKYRLQLLGQYNGSNWLAYRTRNGDEQSWNPWHKVLTDNINAAISARHQYTSSSYPQIYGNGILQLGGDSRNEYGVVLRSNGTDEANAFRPSVNAGTTGHLYLGVANQKWRAVFAQNGTIQTSDRNAKHDITDLDPEKITAFIMGLKPSSYVFNDADSGRTHWGLISQDIEELFPQLGMTSMDFAGFIKSPKTEDYYEDVPETVTDEETGEEKTVTRKELKTRTVEGEYIYSLRYDEFIAPLICMVQRQQRQIEYLERRLSASESKEEAKLEHHHHHH,soluble
11,MYRTPAAIVADATVGIPLVRFVTEEMEMTPELVALYTSHRSVWELLEGELKSLGLNPKVVYGTDVYKTRKSLQEVRPRVVFGSTIERHASEGLPVAYVVEVVRMMRQFRMINREYFGYTGILNLLECVQNEWVMGWRSKELEHHHHHH,not soluble
12,MRFIHALLLAGIAHSAYASEKLTFKTDLEKLEREKAAQIGVAIVDPQGEIVAGHRMAQRFAMCSTFKFPLAALVFERIDSGTERGDRKLSYGPDMIVEWSPATERFLASGHMTVLEAAQAAVQLSDNGATNLLLREIGGPAAMTQYFRKIGDSVSRLDRKEPEMGDNTPGDLRDTTTPIAMARTVAKVLYGGALTSTSTHTIERWLIGNQTGDATLRAGFPKDWVVGEKTGTCANGGRNDIGFFKAQERDYAVAVYTTAPKLSAVERDELVASVGQVITQLILSTDK,soluble
13,MGSSHHHHHHSSGLVPRGSHMAEFRFIKTSLDGAIIIEPEVYTDERGYFMETFNEAIFQENGLEVRFVQDNESMSVRGVLRGLHFQREKPQGKLVRVIRGEIFDVAVDLRKNSDTYGEWTGVRLSDENRREFFIPEGFAHGFLALSDECIVNYKCTELYHPEYDSGIPWDDPDIGIDWPLEMVDDLIISEKDRNWKPLRENPVYL,soluble
14,MAHHHHHHMQEFSTYSLFSRKNETVSGMDENFDNHPENYFKEEYYYDENDDMEVKVKKIGVTLKKFEPLKNGNVSETIKLIHLGNKDKKHIEAINNDIQIIKQELQAIYNELMNYTNGNKNIQQIFQQNILENDVLNQETERQTRSRGGG,soluble
15,MAPQNKPYFTYNNEIIGEATQSNPLGNVVRTTISFKSDDKVSDLISTISKAVQFHKNNSASGENVTINENDFINQLKANGVTVKTVQPSNKNEKAYEAIDKVPSTSFNITLSATGDNNQTATIQIPMVPQGASTPTDTTQNPQINWTKGGQAQSSSLNGQVFQVAVGSNFNPLNFTNSNGENIIVSAQQSKNNTTFASIEATSNPVNTSEAGRYYNVTLTATGNTGKKTTATYTVLITSSQKQTLYGNGESTISTYSIYGNNVLSNSTTFKDGDQVYVSDQTKTVGGVSYSQVSPKSKNDANSSNIWVKTSALVKPAGDTNVKTYPVMVDSRAYDKNGNYLGHMYYAYDNIDIVPTVVTINGKTYYKVANKDEYVRVTNITGNQRTLKHNAYIYWSSYRRTPGTGKMYRGQTVTTYGPQMKFKNGKKYYRIEGCRNNNKRYIKAVNFYLEHHHHHH,soluble
16,MCHKLPKTHNCTFFRKLSNWHSGILISLEQKVTGSIPARETVQLAQWYFDFFGAEGHGFNPREGNCPTGAGVYLTSLEQKVTGSIPAWENNFCLIC,not soluble
17,MGDSVLSAIQQTITQRKSANPSESYVAQLLHKGEDKILKKVIEEAGEVLMASKDKNPSHLVYEVADLWFHTMILLTHHDLKAEDVLDELARRQGLSGLVEKAARTES,not soluble
18,MAEERGRPQYRPNCNGLSSYYRERFGSHSPEVYLNLRISGFDDRLEREQIKQYLTQELKKYAPFEIKVVKNPEEDERLAYVNFERNDCARKVRYTLMDRLKSVLGKRVQCDPAGILRDQEGKYIPDRFNRAQHGADSKREGGSGSGNRGRPTKEPSTWRLKQDDDEATRTLFVGNMPSDVKEREIRHVFEEHGKVEEVDIKTPINTDAAYAFVMFQTVDQAIQAKAEEQDRPIRAGGSRMKIGYGKSQVSRRLFVGGLGSWCDKEILQKAFGEFGFVENIDYDHGQPYAYVVYENTHTSQEACRSLRGACISKGNHPIMVDYAKDLTAQPEKQQFMRKRRASKSPVGASAVRTPPGSPKDVVRNFAELEEAYAATWSGKMALKKTDYPVKFYRVYGAERLPVKLLRDEDDVPLRLLITQRLSLSSQNLLFDKLASCSSKELSLGVITGKKELSDLQPLVNYFTNKEAAGVVTVPGGILYIFPFCEFALKLLAEFTPQVNVFNENCPFLLGALAVRAPGTP,not soluble
19,MNLRKPSAWTALALSISTGPAAAGTVTSATLAASTLSPDCLEYKVVGICYWLLCTPFGCKVKTSTKVRHYVPDAVVSSYSNTGENPWVEVSSLSSPTSFAQDGGDGTTSHNNEDNLAKFKNTDVIGHPGGATFSKFASASGYACQGAATPYMPYLLSTLDTIAWRYGVPESAYPEALIPGQREVGGLTSGDMWGSLYPRSGFIHQADDYKAAAVIAQRAGDVVTRRGQIHIYQPLLAKPQSGYWPAGELIETDASTGKWQELTPTLSQSCAVFPNSQPRVQATDGGYAWALWRPYSCCKRQGQTFLGSTDFQLEHHHHHH,not soluble
20,AIALRADKPKCSIQNFFIPALGKDPNSRDNTTLNFMVRCDNPNKDKGIYYDDVHLNFSTINTTKINSSALVLVGNYTVPKFYQGHKKKAKKWGQVKPLNNQTVLRAVLPNGSAVFRLDLKTQVRFKIVFWKTKRYGVEVGADVEVNGDGVKAQKKGIKMKKS,soluble
21,MGHHHHHHSHMAAAVAMETDDAGNRLRFQLELEFVQCLANPNYLNFLAQRGYFKDKAFVNYLKYLLYWKDPEYAKYLKYPQCLHMLELLQYEHFRKELVNAQCAKFIDEQQILHWQHYSRKRMRLQQALAEQQQQNNTSGK,soluble
